Assay results as given in patent publication US20120114652A1 (AbbVie / Abbott, published 2012).

Key:
α2-antiplasmin = molecular target: T1, α2-antiplasmin (UniProt P08697 40-491, limits assumed); assay: competition ELISA (DELFIA): PICK167_A01 IgG1 coated on the plate, biotinylated human PAI-1, titration of the unlabelled test antigen
T1 sequence (looked up): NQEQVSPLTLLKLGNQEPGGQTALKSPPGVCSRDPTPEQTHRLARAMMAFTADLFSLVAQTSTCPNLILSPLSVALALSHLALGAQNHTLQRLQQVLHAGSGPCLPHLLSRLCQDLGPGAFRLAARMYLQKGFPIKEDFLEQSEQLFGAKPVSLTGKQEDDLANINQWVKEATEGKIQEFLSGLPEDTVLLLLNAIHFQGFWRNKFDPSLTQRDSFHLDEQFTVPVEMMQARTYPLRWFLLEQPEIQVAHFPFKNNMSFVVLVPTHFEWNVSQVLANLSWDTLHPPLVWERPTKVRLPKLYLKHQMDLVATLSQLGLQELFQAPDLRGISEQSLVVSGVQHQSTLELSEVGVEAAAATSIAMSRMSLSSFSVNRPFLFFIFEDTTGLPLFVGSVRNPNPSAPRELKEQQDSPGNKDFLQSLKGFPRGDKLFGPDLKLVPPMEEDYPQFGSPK

[1] = molecular target: T2, glycosylated active human PAI-1 produced by CHO cells (human, UniProt P05121 24-402, N-glycosylated (CHO-produced)); assay: IgG competition ELISA (DELFIA) against biotinylated human PAI-1, one-site binding analysis; column Human glycosylated
T2 construct: also called hu glyco; human glycosylated PAI-1

[2] = molecular target: T3, dog PAI-1 (bacterially-derived active dog PAI-1) (dog); assay: IgG competition ELISA (DELFIA) against biotinylated human PAI-1, one-site binding analysis; column Dog
T3 construct: also called canine PAI-1

latent human PAI-1 = molecular target: T4, latent human PAI-1 (human, UniProt P05121 24-402); assay: IgG competition ELISA (DELFIA) against biotinylated human PAI-1, one-site binding analysis; column Human latent
T4 construct: also called latent PAI-1

B1: PICK167_A01 IgG1 (antibody, V domains shown)
VH: QVQLQQSGAEVKKPGSSVKVSCKASGGTFSSYAISWVRQAPGQRLEWMGGIIPTFGTANYAQKFQGRVTITADESTSTAYMELSGLRSEDTAVYYCARERRQWLEGHFDYWGRGTPVTVSS
VL: DIQMTQSPSFLSASIGDRVTITCRASEGIYHNLAWYQQKPGKAPKLLIYKASSLASGAPSRFSGSRSGTDFTLTISSLQPDDFATYYCQQYSNYPLTFGGGTKLEIKR
B1 was tested, and the binding result (α2-antiplasmin) was “no binding (tested: log M about -6.3 (about 5e-7 M))”, the “fold difference in observed binding KD compared to human wild-type active” value (“fold difference in observed binding KD” below) [1] was 1.2 fold and the “fold difference in observed binding KD” value [2] was 2.7 fold. For the same binder, the “fold difference in observed binding KD” value (latent human PAI-1) was 8.5 fold.
